From publication PMC7534368 come the findings set out here.

The target in experiment [1] is SARS-CoV-2 spike ectodomain with the wild-type sequence (S-WT), aa 15-1,213, with C-terminal thrombi (SARS-CoV-2 | bacteriophage T4) (UniProt P0DTC2). The experiment is described as follows: AUC.
Experiment [2] has as its target SARS-CoV-2 spike ectodomain, prefusion trimer-stabilized form (S-2P), aa 15-1,213, with C-terminal t (SARS-CoV-2 | bacteriophage T4) (UniProt P0DTC2). The experiment is described as follows: cryo-EM structure.

As for “SARS-CoV-2 spike ectodomain with the wild-type sequence (S-WT), aa 15-1,213, with C-terminal thrombi (from UniProt P0DTC2 15-1213) (domain or fragment)”, in experiment [1], the stoichiometry N (in general, a count of units in the complex or per binding partner) came to 3.
With “SARS-CoV-2 spike ectodomain, prefusion trimer-stabilized form (S-2P), aa 15-1,213, with C-terminal t (from UniProt P0DTC2 15-1213) (domain or fragment)”, the stoichiometry N in experiment [2] turned out to be 3.
